Results as given in paper PMC1513511.

Tests used:
H6MobC221 (pC221 MobC) [1] = target: T1, H6MobC221 (pC221 MobC) (plasmid pC221, UniProt Q6V0Y1 1-132); experiment: SPR
T1 sequence: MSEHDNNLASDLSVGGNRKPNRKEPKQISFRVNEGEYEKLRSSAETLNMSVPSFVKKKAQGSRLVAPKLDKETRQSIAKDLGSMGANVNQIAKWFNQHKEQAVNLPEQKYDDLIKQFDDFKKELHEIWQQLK

H6MobC221 (pC221 MobC) [2] = target: T1, H6MobC221 (pC221 MobC); experiment: SPR; remark: listed apart in the source

B1: 21Pmut (randomized mcb2 oligoduplex) (dsDNA)
DNA 1: AACGAGAGTAGGTCAATATA
DNA 2: TATATTGACCTACTCTCGTT
- binding result (H6MobC221 (pC221 MobC) [1]): no binding

B2: 21P (mcb2 oligoduplex) (dsDNA)
DNA 1: AACGAAGTGGCTAGAATATA
DNA 2: TATATTCTAGCCACTTCGTT
- Kd (H6MobC221 (pC221 MobC) [2]): ~1800 nM
